Laboratory results from PMC13011424.

Columns and labels:
[1] = molecular target: BG505 SOSIP.v4.1 Env trimer produced in STT3B-KO HEK293T cells (HIV-1 strain BG505 (clade A)); test: native gel or EMSA
[2] = molecular target: BG505 SOSIP.v4.1 Env trimer produced in STT3B-KO HEK293T cells (HIV-1 strain BG505 (clade A)); test: SEC; SEC of Ni-NTA-purified Env on a Superdex 200 10/300 GL column; trimer, dimer and monomer peaks
[3] = molecular target: BG505 SOSIP.v4.1 Env trimer produced in STT3A-KO HEK293T cells (HIV-1 strain BG505 (clade A)); test: native gel or EMSA
[4] = molecular target: BG505 SOSIP.v4.1 Env trimer produced in STT3A-KO HEK293T cells (HIV-1 strain BG505 (clade A)); test: SEC; SEC of Ni-NTA-purified Env on a Superdex 200 10/300 GL column; trimer, dimer and monomer peaks
[5] = molecular target: BG505 SOSIP.v4.1 Env trimer produced in wild-type (WT) HEK293T cells (HIV-1 strain BG505 (clade A)); test: native gel or EMSA
[6] = molecular target: BG505 SOSIP.v4.1 Env trimer produced in wild-type (WT) HEK293T cells (HIV-1 strain BG505 (clade A)); test: SEC; SEC of Ni-NTA-purified Env on a Superdex 200 10/300 GL column; trimer, dimer and monomer peaks

BG505 SOSIP.v4.1 Env trimer produced in STT3B-KO HEK293T cells (complex)
stoichiometry N [1]: 3
stoichiometry N [2]: 3

BG505 SOSIP.v4.1 Env trimer produced in STT3A-KO HEK293T cells (complex)
stoichiometry N [3]: 3
stoichiometry N [4]: 3

BG505 SOSIP.v4.1 Env trimer produced in wild-type (WT) HEK293T cells (complex)
stoichiometry N [5]: 3
stoichiometry N [6]: 3
